# Measurements reported in FireProtDB (doi:10.1074/jbc.271.51.32729).
# B1: Ribonuclease HI, P0A7Y4 (parent)
# chain: MLKQVEIFTDGSCLGNPGPGGYGAILRYRGREKTFSAGYTRTTNNRMELMAAIVALEALKEHCEVILSTDSQYVRQGITQWIHNWKKRGWKTADKKPVKNVDLWQRLDAALGQHQIKWEWVKGHAGHPENERCDELARAAAMNPTLEDTGYQVEV
# Variants of: B1
# Settings: Escherichia coli (strain K12), Thermal, CD, reversible: yes, structure 2RN2, whole UniProt chain shown
# [1] = pH 9, 47 °C, glycine-NaOH 50 mM
Variant,"ddG of mutation (higher = less stable) (pH 3, 50 °C, glycine-HCl 10 mM) [kcal/mol]","Tm (pH 3, glycine-HCl 10 mM) [°C]","change of melting temperature, mutant - wild type (higher = more stable) (pH 3, glycine-HCl 10 mM) [°C]","unfolding enthalpy (van 't Hoff) (pH 3, glycine-HCl 10 mM) [kcal/mol]",ddG of mutation (higher = less stable) [1] [kcal/mol],"Tm (pH 9, glycine-NaOH 50 mM) [°C]","change of melting temperature, mutant - wild type (higher = more stable) (pH 9, glycine-NaOH 50 mM) [°C]"
D10N,0.7,47.4,-2.6,90.5,-2,53.8,6.8
D10A,-2.4,58.1,8.1,105,,,
D10S,-0.7,52.4,2.4,121,-2.7,56.2,9.2
D10H,-0.4,51.5,1.5,115,-2.4,,
D10E,-1.1,53.8,3.8,97.7,-1,50.4,3.4
D70A,0.1,49.7,-0.3,85.5,-1.1,50.8,3.8
D70N,0.3,48.8,-1.2,110,,52.5,5.5
D70E,-0.5,51.8,1.8,90.4,-0.1,,
D134A,-0.8,52.9,2.9,105,-2,,
D134N,0.1,49.7,-0.3,110,-1.8,53.4,6.4
E48D,-0.2,50.8,0.8,103,0.2,46.2,-0.8
E48Q,0.1,49.8,-0.2,99.1,,48,1
E48A,0.1,49.8,-0.2,91.6,0.3,46,-1
